Blank lines part the entries; values can stand above or below the substance they belong to.
Key:
Test in all cases: cell-based or functional assay
[1] = molecular target: somatostatin receptors (multi-somatostatin receptor)
[2] = molecular target: GHRH receptor (GHRH-R) (human) (UniProt Q02643)
[3] = molecular target: somatostatin receptor 2 (SSTR2) (human) (UniProt P30874)
GPR101 (human) = GPR101 (human) (UniProt Q96P66)
UniProt Q96P66, sequence (Q96P66 whole entry): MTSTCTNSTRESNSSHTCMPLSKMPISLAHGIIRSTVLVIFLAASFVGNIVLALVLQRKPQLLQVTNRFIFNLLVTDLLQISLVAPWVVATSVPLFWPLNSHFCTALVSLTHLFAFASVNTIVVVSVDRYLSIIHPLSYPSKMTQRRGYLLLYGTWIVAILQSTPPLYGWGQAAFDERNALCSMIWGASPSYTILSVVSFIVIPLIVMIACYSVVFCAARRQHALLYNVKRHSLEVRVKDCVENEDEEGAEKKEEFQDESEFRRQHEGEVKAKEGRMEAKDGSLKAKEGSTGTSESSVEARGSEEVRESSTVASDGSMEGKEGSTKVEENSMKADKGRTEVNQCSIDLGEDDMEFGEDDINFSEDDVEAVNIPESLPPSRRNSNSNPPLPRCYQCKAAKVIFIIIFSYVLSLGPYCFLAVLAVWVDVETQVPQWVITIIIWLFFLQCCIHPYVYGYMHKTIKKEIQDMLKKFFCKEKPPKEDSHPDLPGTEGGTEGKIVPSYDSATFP

UniProt Q02643, sequence (Q02643 23-423): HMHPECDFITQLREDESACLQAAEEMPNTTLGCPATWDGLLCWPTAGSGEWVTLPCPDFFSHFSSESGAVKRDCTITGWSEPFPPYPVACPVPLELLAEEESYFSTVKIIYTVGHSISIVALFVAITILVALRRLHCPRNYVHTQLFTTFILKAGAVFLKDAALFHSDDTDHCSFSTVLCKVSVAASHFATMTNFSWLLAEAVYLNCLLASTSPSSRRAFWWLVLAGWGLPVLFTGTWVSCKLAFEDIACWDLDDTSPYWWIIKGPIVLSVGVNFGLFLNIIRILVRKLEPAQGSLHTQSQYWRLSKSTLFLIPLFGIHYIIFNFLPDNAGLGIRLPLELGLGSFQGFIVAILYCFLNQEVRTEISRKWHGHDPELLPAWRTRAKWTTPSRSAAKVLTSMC
UniProt P30874, sequence (P30874 whole entry): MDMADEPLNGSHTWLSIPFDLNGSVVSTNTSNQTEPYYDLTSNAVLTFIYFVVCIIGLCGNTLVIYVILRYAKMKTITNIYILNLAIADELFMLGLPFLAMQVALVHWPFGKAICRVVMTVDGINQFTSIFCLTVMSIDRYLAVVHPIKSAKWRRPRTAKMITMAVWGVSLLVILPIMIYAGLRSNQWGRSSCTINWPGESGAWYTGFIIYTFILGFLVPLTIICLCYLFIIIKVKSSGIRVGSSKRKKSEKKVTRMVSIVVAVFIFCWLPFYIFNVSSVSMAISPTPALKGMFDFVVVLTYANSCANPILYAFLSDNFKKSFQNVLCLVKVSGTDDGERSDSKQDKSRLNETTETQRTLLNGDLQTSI

GH secretion by primary X-LAG pituitary tumour cells, % change vs control, maximum inhibition at 10^-8 M [1]: -18%
Substance: pasireotide (peptide)

GH secretion by primary X-LAG pituitary tumour cells, % change vs control wells, GHRH at 10^-10 M [2]: 410% | Prolactin secretion by primary X-LAG pituitary tumour cells, % change vs control wells, GHRH at 10^-8 M [2]: 11%
Substance: GH releasing hormone (GHRH) (from UniProt P01286 32-75) (ligand)

Prolactin secretion by primary X-LAG pituitary tumour cells, % change vs control, octreotide at 10^-9 M [3]: -26%
Substance: octreotide (peptide)

GH secretion by primary X-LAG pituitary tumour cells, % change vs control, GnRH1-5 at 10^-10 M (GPR101 (human)): 15%
Substance: GnRH1-5 (from UniProt P01148 24-28) (peptide)
